For experiment [1], the target named is T1, Peptide C: LEEKKGNYVVTDH(K-Biot)-OH (biotin on the added C-terminal Lys (K-Biot)).
T1 construct: also called C-terminal biotinylated de2-7 peptide
T1 peptide: LEEKKGNYVVTDHK
Description: BIAcore, Peptide C on streptavidin chip.
Description: Serial dilutions of mAbs were tested for reactivity with the peptide. Blocking experiments using non-biotinylated peptide were performed to assess specificity.

For experiment [2], the target named is T2, EGFR fragment 1-176 displayed on yeast (human, UniProt P00533 25-200).
T2 construct: yeast surface display, C-terminal c-myc tag
In words: flow cytometry on yeast-displayed, c-myc-tagged EGFR fragment (native); fragment printed '1-716' on the sheet, 1-176 in the text.
Description: (§1) Briefly, transformed colonies were grown at 30° C. in minimal media containing yeast nitrogen base, casein hydrolysate, dextrose, and phosphate buffer pH 7.4, on a shaking platform for approximately one day until an OD₆₀₀ of 5-6 was reached. […] Cultures were then stored at 4° C. until analysis. […] The cells were then washed with ice cold FACS buffer and incubated with phycoerythrin-labelled anti-mouse IgG (1:25 dilution), in a final volume of 50 μl for 1 h at 4° C., protected from light. After washing the yeast cells with ice-cold FACS buffer, fluorescence data was obtained with a Coulter Epics XL flow cytometer (Beckman-Coulter), and analyzed with WinMDI cytometry software (J. Trotter, Scripps University). For determination of linear versus conformational epitopes, yeast cells were heated at 80° C. for 30 min, then chilled on ice 20 min prior to labeling with antibodies.

The target of experiment [3] is T3, biotinylated de2-7 specific peptide Biotin-LEEKKGNYVVTDH (human).
T3 construct: also called unique de2-7 EGFR peptide
T3 peptide: Biotin-LEEKKGNYVVTDH
Description: ELISA on biotinylated peptide on streptavidin plates.
Description: Two types of ELISA were used to determine the specificity of the antibodies. […] Antibodies were added to wells in triplicate at increasing concentration in 2% HSA in phosphate-buffered saline (PBS).
Antibodies were bound and detected as in the first assay.

For experiment [4], the target named is T4, EGFR fragment 475-621 displayed on yeast (human, UniProt P00533 499-645).
T4 construct: yeast surface display, C-terminal c-myc tag
In words: flow cytometry on yeast-displayed, c-myc-tagged EGFR fragment (native).
Description: as §1

The target in experiment [5] is T5, de2-7 EGFR unique junctional peptide (human).
T5 construct: non-biotinylated; also called Junction Peptide
T5 peptide: LEEKKGNYVVTDH-OH
In words: dot-blot immune stain.
Description: Dot-blot immune stain experiments were also performed. Serial dilutions of peptide were spotted in 0.5 μl onto a PVDF or nitrocellulose membranes.

In experiment [6] the target is T6, EGFR fragment 1-294 displayed on yeast (human, UniProt P00533 25-318).
T6 construct: yeast surface display, C-terminal c-myc tag
In words: flow cytometry on yeast-displayed, c-myc-tagged EGFR fragment (native), indirect immunofluorescence.
Description: as §1

Experiment [7] concerns the target T7, anti-idiotype antibody LMH-12.
T7 construct: mouse IgG1 kappa
In words: sandwich ELISA: plate coated with 10 µg/ml LMH-12, detection with biotinylated LMH-12 (10 µg/ml), avidin-HRP and ABTS.

Results on 1 molecule are retold here after US20110313230A1 (LUDWIG INSTITUTE FOR CANCER RESEARCH, published 2011).

Where no end group is shown, it is not given here. The star is where a group is joined. Biotin = O=C1N[C@H]2[C@H](CS[C@H]2CCCCC(=O)*)N1

B1: mAb806 (antibody, V domains shown)
VH: DVQLQESGPSLVKPSQSLSLTCTVTGYSITSDFAWNWIRQFPGNKLEWMGYISYSGNTRYNPSLKSRISITRDTSKNQFFLQLNSVTIEDTATYYCVTAGRGFPYWGQGTLVTVSA
VL: DILMTQSPSSMSVSLGDTVSITCHSSQDINSNIGWLQQRPGKSFKGLIYHGTNLDDEVPSRFSGSGSGADYSLTISSLESEDFADYYCVQYAQFPWTFGGGTKLEIKR
notes: murine IgG2b
In the case of B1, the binding result in experiment [1] was “no binding (tested: 100 nM)”; in experiment [2] it was “no binding (tested: 10 µg/ml)”; in experiment [3], “no binding”; in experiment [4], “no binding (tested: 10 µg/ml)”; in experiment [5], “no binding”; in experiment [6] it was “no binding (tested: 10 µg/ml)”. The “EC50 (read off the curve)” value in experiment [7] is roughly 0.07 µg/mL.
